The source of these data is paper PMC4027207, “Molecular dissection of the domain architecture and catalytic activities of human PrimPol” (Nucleic Acids Research, 2014).

The target in this data set is T1, PrimPol372-560/ZF-KO (Homo sapiens, UniProt Q96LW4 372-560, C419A;H426A).
T1 sequence: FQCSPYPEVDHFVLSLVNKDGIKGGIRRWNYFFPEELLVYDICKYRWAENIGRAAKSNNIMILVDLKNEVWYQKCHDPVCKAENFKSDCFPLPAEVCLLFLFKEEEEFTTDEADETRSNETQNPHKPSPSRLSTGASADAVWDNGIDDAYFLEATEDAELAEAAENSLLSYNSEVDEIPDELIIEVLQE
The experiment in a line: EMSA; 10 mM Mg2+; 40 nM DNA; no binding, protein 0.05-20 uM; 10 mM Bis-Tris-Propane-HCl pH 7.0, 10 mM MgCl2, 1 mM DTT, 40 nM DNA, 25°C, 60 min; 5% polyacrylamide gel in 0.5x TBE. As to conditions: protein: recombinant; tags: His (Ni-NTA purified); label: 5'-Hex. A general note: A gel shift assay detects complexes by their altered migration in electrophoresis.

Take TGTCGTCTGTTCGGTCGTTCGGTCTTCAAGGCTGTTGTGCGCCCTGCGCG (ssDNA) [HP-50 ssDNA (sequence 7)]: the binding result was “no binding”.
